20 molecules from US20190177416A1 (NANOMAB TECHNOLOGY, published 2019) can be followed below.

T1: PD-L2 (coated antigenic protein) (UniProt Q9BQ51 20-220, limits assumed)
T1 sequence (looked up): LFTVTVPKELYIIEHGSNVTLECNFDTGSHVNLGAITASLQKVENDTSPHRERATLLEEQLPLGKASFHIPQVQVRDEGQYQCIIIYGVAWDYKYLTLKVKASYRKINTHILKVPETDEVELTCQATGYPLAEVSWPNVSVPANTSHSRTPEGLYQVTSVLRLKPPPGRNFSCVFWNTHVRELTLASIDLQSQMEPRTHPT

B1: SEQ ID NO 1 (VHH)
VHH: QVQLQESGGGSVQTGGSLRLSCTASTSIYSNNYMAWFSQSPGKGREGVAAVYMDDGRPYYADSVKGRFTISLDSAKNTMYLQMNSLKPEDTAMYYCAAAPGPLSRNYWYTSANYDYWGQGTQVTVSS
notes: pMECS-expressed; also called anti-PD-L1 nanobody No. 1; VHH numbered 1
B2: SEQ ID NO 6 (VHH)
VHH: QVQLQESGGGSVQAGETLRLSCTASGDTFDASGVGWFRQVSGNECDLVSSINRDGTTYYAPSVAGRFTMSQNNAKNTVYLQMNSLKPDDTAVYYCATDPAVGIVVRSTCRGPFGYWGQGTQVTVSS
notes: pMECS-expressed; also called anti-PD-L1 nanobody No. 6; VHH numbered 6
B3: SEQ ID NO 11 (VHH)
VHH: B2 VHH with A31D, M69I, D98V, S107I
notes: pMECS-expressed; also called anti-PD-L1 nanobody No. 11; VHH numbered 11
B4: SEQ ID NO 5 (VHH)
VHH: B1 VHH with T23A, S40A, M53I, M79V, S85G
notes: pMECS-expressed; also called anti-PD-L1 nanobody No. 5; VHH numbered 5
B5: SEQ ID NO 7 (VHH)
VHH: B1 VHH with T23A, A24C, N31T, S40A, M53I, D54G, M79V
notes: pMECS-expressed; also called anti-PD-L1 nanobody No. 7; VHH numbered 7
B6: SEQ ID NO 2 (VHH)
VHH: QVQLQESGGGSVQAGGSLRLSCAVSRYSASNNVIKWMGWFRQAPGKEREGVAALYTSGGNTYYADSVKGRFTISRDYSENTVSLQMNNLKPEDTGMYYCATTVGTVLAGPLSARKYNYWGQGTQVTVSS
notes: pMECS-expressed; also called anti-PD-L1 nanobody No. 2; VHH numbered 2
B7: SEQ ID NO 9 (VHH)
VHH: QVQLQESGGGSVQAGGSLRLSCAASGYTYSNDGMGWFRQIPGKEREGVAAISPTGRRTEYADSVQGRFTISRDNAKNMLSLQMNSLKPEDTGMYYCAREGSGSFSLQNSAVRSWGQGTQVTVSS
notes: pMECS-expressed; also called anti-PD-L1 nanobody No. 9; VHH numbered 9
B8: SEQ ID NO 8 (VHH)
VHH: QVQLQESGGDSVQAGGSLRLACKVPGFTSNTCAMAWFRQAPGKEREFVSSISTGGTTGYAESAKGRFTLSKDEAKDTVYLQMNSLKPEDTAMYFCKSYACRTCIGRYCRTAPDAWGQGTQVTVSS
notes: pMECS-expressed; also called anti-PD-L1 nanobody No. 8; VHH numbered 8
B9: SEQ ID NO 12 (VHH)
VHH: QVQLQESGGGSVQAGGSLRLSCAASGYTRSSHCMVWFRQAPGKEREGVALIYTGSGSTYYADSVKGRFTISQDNAKKTLYLQMNSLKPEDTAMYYCAAGTSSSSCPGLLGPPRYYNWGQGTQVTVSS
notes: pMECS-expressed; also called anti-PD-L1 nanobody No. 12; VHH numbered 12
B10: SEQ ID NO 10 (VHH)
VHH: QVQLQESGGGSVQAGGSLRLSCTAPGFTSKTCAMRWYRQAPGKEREFVSAISTVGTTTYADSVKGRFIISKDEAKDTVYLQINSLKPEDTAMYSCKTFACRHCIGQSCRTEPDYWGQGTQVTVSS
notes: pMECS-expressed; also called anti-PD-L1 nanobody No. 10; VHH numbered 10
B11: SEQ ID NO 147 (VHH)
VHH: QVQLQESGGGSVQAGGSLRLSCAASGYTSRPNFMVWFRQAPGKEREAVAGIYTVTGGTLYSDPVKGRFTISQDKAKNTVYLQMNSLNPEDTAMYYCAVKWYGGSWSDAATFRTWGRGTQVTVSS
notes: pMECS-expressed; also called VHH numbered 147
B12: SEQ ID NO 141 (VHH)
VHH: QVQLQESGGGSVQAGGSLRLSCTAPGFTSNTCAMAWFRQAPGKEREFVSSMSTVGSTRFADSVKGRFTISKDEAKDTVYLQMNSLKPEDTAMYFCKTYACRECTGRYCRTAPDAWGQGTQVTVSS
notes: pMECS-expressed; also called VHH numbered 141
B13: SEQ ID NO 143 (VHH)
VHH: B12 VHH with F37Y, M51I, G55R, S56T, R58A, F59Y, D76A, T97S, E102D, T104I
notes: pMECS-expressed; also called VHH numbered 143
B14: SEQ ID NO 139 (VHH)
VHH: QVQLQESGGGSVQAGGSLRLSCVASGYTNCRYDMSWYRQAPGKEREFVSSIDSEGVARHADSVKGRFGISQDNAKSTLYLQMNSLKPEDTAVYYCKTDYITCRFGSWSDSTWGQGTQVTVSS
notes: pMECS-expressed; also called VHH numbered 139
B15: SEQ ID NO 140 (VHH)
VHH: B14 VHH with V92M, T97M, T101R, D109E
notes: pMECS-expressed; also called VHH numbered 140
B16: SEQ ID NO 144 (VHH)
VHH: QVQLQESGGGSVQAGQSLRLSCTASGYTDSRYCMGWFRQAPGKERERVTTIHTGTGITYYADSVKGRFSISQDNAQNTMYLQMNSLEPEDTAMYYCATTDYVYSASASWCNGYGVFNNWGQGTQVTVSS
notes: pMECS-expressed; also called VHH numbered 144
B17: SEQ ID NO 148 (VHH)
VHH: QVQLQESGGGSVQAGGSLRLSCAASGYSYNIDYMAWFRQAPGKEREGVAAIYTGSRRTYYSDSVKGRFAISQDNADNTVYLQMNALKPEDTAMYFCAALVSRPGRSWDKNEYRYWGQGTQVTVSS
notes: pMECS-expressed; also called VHH numbered 148
B18: SEQ ID NO 142 (VHH)
VHH: B6 VHH with A14T, T101A
notes: pMECS-expressed; also called VHH numbered 142
B19: SEQ ID NO 150 (VHH)
VHH: QVQLQESGGGLVQPGGSLRLSCAASGFTFSAYGMSWVRQAPGKGFEWVSTINSGGGTTFYADSVKGRFTISRDNAKNTLYLQLNSLRTEDTAMYYCRRCADIYCSLSGGWTGQGTQVTVSS
notes: pMECS-expressed; also called VHH numbered 150
B20: SEQ ID NO 149 (VHH)
VHH: QVQLQESGGGLVQAGGSLRLSCTASGFTFDDYSMGWFRQAPGKEREGISCIDWSGGRTNYGDSVKGRFTISRDNAKNTLYLQMNSLKPEDTAMYYCAANSAYSSCSLSTTHYKYWGQGTQVTVSS
notes: pMECS-expressed; also called VHH numbered 149

Residue numbers refer to the chain shown, from its start.

T3 sequence (Q9NZQ7 19-238 limits assumed): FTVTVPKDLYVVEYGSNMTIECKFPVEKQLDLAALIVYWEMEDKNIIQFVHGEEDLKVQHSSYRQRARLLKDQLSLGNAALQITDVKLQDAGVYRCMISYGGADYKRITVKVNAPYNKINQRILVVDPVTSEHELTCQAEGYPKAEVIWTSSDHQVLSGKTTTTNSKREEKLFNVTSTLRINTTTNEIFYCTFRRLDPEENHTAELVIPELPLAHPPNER

In one assay the target is T2, PD-L1 on 293F cells transiently transfected with the PD-L1 full-length gene (UniProt Q9NZQ7 19-290, limits assumed).
T2 construct: whole, on cells; also called PD-L1 transient cells
T2 sequence (Q9NZQ7 19-290 limits assumed): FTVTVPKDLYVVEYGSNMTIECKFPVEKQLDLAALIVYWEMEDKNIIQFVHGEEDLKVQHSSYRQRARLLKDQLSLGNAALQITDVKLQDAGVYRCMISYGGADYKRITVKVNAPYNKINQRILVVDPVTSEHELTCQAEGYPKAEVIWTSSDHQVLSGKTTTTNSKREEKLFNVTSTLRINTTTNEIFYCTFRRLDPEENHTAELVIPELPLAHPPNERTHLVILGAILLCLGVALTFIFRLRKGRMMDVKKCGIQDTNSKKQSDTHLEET
Nature of the assay: flow cytometry, 293F cells transiently transfected with PD-L1 or PD-L2. As for the experimental part: In addition, the specificity of the PD-L1 nanobody was detected by flow cytometry. The PD-L1 full-length gene and the PD-L2 full-length gene were transiently transfected in a conventional 293F cell, and a nano-antibody (SEQ ID NO.: 1) of PD-L1 was selected for incubation for flow cytometry.
(A flow cytometer gives signals particle by particle.)
Take B1: the “fold difference (PD-L1 transient cells against PD-L2 transient cells)” value was ≥ 550 times.

Another assay addresses T1, PD-L2 (coated antigenic protein). The assay can be described thus: ELISA, purified nanobody 10 ug/mL on coated PD-L2, anti-HA detection. As for the experimental part: (§1) (1) Coated antigenic proteins PD-L1 and PD-L2: 0.5 μg per well (5 μg/mL, 100 μL), packaged NaHCO₃ (100 mM, pH8.2) was used as a blank control and overnight at 4° C. (2) Wash the cells three times with PBST the next day, add 200 μL of 1% BSA to block at room temperature for 2 hours. (3) Each purified nanobody was diluted to 10 μg/mL, and 100 pt of each of the purified nanobodies was incubated with the coated PD-L1, PD-L2 and the blank control group, and reacted at room temperature for 1 hour. (4) Unbound antibody was washed away with PBST, and 100 μL of mouse anti-HA tag antibody (1:2000 dilution) was added and placed at room temperature for 1 hour. (5) Unbound antibody was washed away with PBST, and anti-mouse alkaline phosphatase conjugate (1:2000 dilution) was added and placed at room temperature for 1 hour. (6) Wash the unbound antibody with PBST, add alkaline phosphatase coloring solution, and read the absorbance at 405 nm on an ELISA apparatus. The specificity of the nanobody was judged based on the absorption value.
On the technique in general: In an ELISA, binding on a coated surface is turned into a signal by an enzyme label.
On to B2, for which the “ELISA absorbance (A405 nm)” value amounted to 0.115 A405 nm.

As to B3, the “ELISA absorbance (A405 nm)” value worked out at 0.116 A405 nm.

In the case of B1, the “ELISA absorbance (A405 nm)” value is 0.118 A405 nm.

As to B4, the “ELISA absorbance (A405 nm)” value came out at 0.128 A405 nm.

As to B5, the “ELISA absorbance (A405 nm)” value amounted to 0.119 A405 nm.

In the case of B6, the “ELISA absorbance (A405 nm)” value amounted to 0.114 A405 nm.

As to B7, the “ELISA absorbance (A405 nm)” value is 0.131 A405 nm.

For the molecule B8, the “ELISA absorbance (A405 nm)” value was 0.133 A405 nm.

For the molecule B9, the “ELISA absorbance (A405 nm)” value amounted to 0.125 A405 nm.

With B10, the “ELISA absorbance (A405 nm)” value stood at 0.117 A405 nm.

A further assay has as its target T3, human PD-L1 protein (coated antigen) (human, UniProt Q9NZQ7 19-238, limits assumed).
T3 construct: Construct not described; also called PD-L1 antigen; antigenic protein PD-L1
The assay can be described thus: PE-ELISA on coated PD-L1.
On to B11, for which the binding result is “binds”.

As to B12, the binding result is listed as “binds”.

As to B13, the binding result is “binds”.

As for B14, the binding result is on record as “binds”.

Turning to B15, the binding result is listed as “binds”.

Take B16: the binding result is reported as “binds”.

For B17, the binding result is “binds”.

As to B18, the binding result was “binds”.

Regarding B19, the binding result was “binds”.

On to B20, for which the binding result is on record as “binds”.

The next assay has as its target T3, human PD-L1 protein (coated antigen). The assay can be described thus: ELISA, purified nanobody 10 ug/mL, coated PD-L1 against coated PD-L2. As for the experimental part: as §1
Take B2: the “OD ratio (PD-L1/PD-L2)” value was found to be 29.9.

Regarding B3, the “OD ratio (PD-L1/PD-L2)” value is 25.

For the molecule B1, the “OD ratio (PD-L1/PD-L2)” value is 32.2.

Take B4: the “OD ratio (PD-L1/PD-L2)” value was 26.4.

Turning to B5, the “OD ratio (PD-L1/PD-L2)” value worked out at 29.5.

Turning to B6, the “OD ratio (PD-L1/PD-L2)” value turned out to be 31.8.

As for B7, the “OD ratio (PD-L1/PD-L2)” value came out at 27.2.

In the case of B8, the “OD ratio (PD-L1/PD-L2)” value was 25.3.

Take B9: the “OD ratio (PD-L1/PD-L2)” value worked out at 23.9.

Consider B10, for which the “OD ratio (PD-L1/PD-L2)” value stood at 28.6.

The target is the same in another assay. The assay can be described thus: ELISA, purified nanobody 10 ug/mL on coated PD-L1, anti-HA detection. As for the experimental part:
as §1
B2: the “ELISA absorbance (A405 nm)” value came out at 3.44 A405 nm.

Regarding B3, the “ELISA absorbance (A405 nm)” value came to 2.9 A405 nm.

As for B1, the “ELISA absorbance (A405 nm)” value is 3.8 A405 nm.

In the case of B4, the “ELISA absorbance (A405 nm)” value worked out at 3.38 A405 nm.

With B5, the “ELISA absorbance (A405 nm)” value amounted to 3.51 A405 nm.

As for B6, the “ELISA absorbance (A405 nm)” value was found to be 3.63 A405 nm.

In the case of B7, the “ELISA absorbance (A405 nm)” value is 3.56 A405 nm.

As to B8, the “ELISA absorbance (A405 nm)” value is 3.37 A405 nm.

As for B9, the “ELISA absorbance (A405 nm)” value was found to be 2.99 A405 nm.

With B10, the “ELISA absorbance (A405 nm)” value came to 3.34 A405 nm.

For another assay the target is unchanged. Nature of the assay: PE-ELISA, crude extract on coated PD-L1. In a few lines:
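Phage clones were expressed with 1 mmol IPTG at 28° C overnight, and crude periplasmic antibody was applied to PD-L1-coated plates for 1 h at room temperature. Detection used anti-HA, then an alkaline phosphatase conjugate, read at 405 nm. A sample/control OD ratio above 3 marked a positive clone.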
With B2, the “OD ratio (experimental group (A405 nm)/control group (A405 nm))” value was > 20.

With B3, the “OD ratio (experimental group (A405 nm)/control group (A405 nm))” value was > 20.

Consider B1, for which the “OD ratio (experimental group (A405 nm)/control group (A405 nm))” value was > 20.

As for B4, the “OD ratio (experimental group (A405 nm)/control group (A405 nm))” value is > 20.

As to B5, the “OD ratio (experimental group (A405 nm)/control group (A405 nm))” value was > 20.

As to B6, the “OD ratio (experimental group (A405 nm)/control group (A405 nm))” value was > 20.

B7: the “OD ratio (experimental group (A405 nm)/control group (A405 nm))” value was > 20.

For the molecule B8, the “OD ratio (experimental group (A405 nm)/control group (A405 nm))” value is > 20.

As for B9, the “OD ratio (experimental group (A405 nm)/control group (A405 nm))” value is > 20.

For B10, the “OD ratio (experimental group (A405 nm)/control group (A405 nm))” value is > 20.
